Experimental data as given in article PMC8622905, “Structural Effects of Disease-Related Mutations in Actin-Binding Period 3 of Tropomyosin” (Molecules, 2021).

B1: Tpm1.1_(64–154) (domain or fragment)
chain: not shown
modifications: disulfide bond between the Cys residues of the N-terminal fusion sequences of the two chains (non-reducing conditions)
notes: tropomyosin Tpm1.1 (human skeletal isoform, TPM1), residues Leu64 to Ile154; Cloned in pET15b between NdeI and BamHI; also called Tpm1.1 peptide; wild-type Tpm1.1_(64–154); source: His-tag removed with thrombin; not shown: His-tag, N-terminal, cleaved
B2: Tpm3.12_(65–155) (domain or fragment)
chain: not shown
modifications: disulfide bond between the Cys residues of the N-terminal fusion sequences of the two chains (non-reducing conditions)
notes: tropomyosin Tpm3.12 (human skeletal isoform, TPM3), residues 65-155, numbered as in full-length Tpm3.12; Cloned in pET15b between NdeI and BamHI; One sentence of the methods prints 65–165; also called Tpm3.12 peptide; wild-type Tpm3.12_(65–155); source: His-tag removed with thrombin; not shown: His-tag, N-terminal, cleaved
B3: Tpm1.1_(64–154)I92T (domain or fragment)
chain: not shown
modifications: oxidized Cys residues (disulfide between the N-terminal Cys of the two chains)
notes: tropomyosin Tpm1.1 (human, TPM1), residues 64-154 with the cardiomyopathy mutation I92T; source: His-tag removed with thrombin; not shown: His-tag, N-terminal, cleaved
B4: Tpm1.1_(64–154)V95A (domain or fragment)
chain: not shown
modifications: oxidized Cys residues (disulfide between the N-terminal Cys of the two chains)
notes: tropomyosin Tpm1.1 (human, TPM1), residues 64-154 with the cardiomyopathy mutation V95A; source: His-tag removed with thrombin; not shown: His-tag, N-terminal, cleaved
B5: Tpm3.12_(65–155)R91C (domain or fragment)
chain: not shown
modifications: oxidized Cys residues (disulfide between the N-terminal Cys of the two chains)
notes: tropomyosin Tpm3.12 (human, TPM3), residues 65-155 with the congenital myopathy mutation R91C; source: His-tag removed with thrombin; not shown: His-tag, N-terminal, cleaved
B6: Tpm3.12_(65–155)R91P (domain or fragment)
chain: not shown
modifications: oxidized Cys residues (disulfide between the N-terminal Cys of the two chains)
notes: tropomyosin Tpm3.12 (human, TPM3), residues 65-155 with the congenital myopathy mutation R91P; source: His-tag removed with thrombin; not shown: His-tag, N-terminal, cleaved

Target: the molecule itself
Test: cross-linking; disulfide cross-link through the N-terminal Cys, seen on SDS-polyacrylamide gel; Laemmli solution without β-mercaptoethanol, with or without 3 min at 100 °C

| Protein | stoichiometry N |
| --- | --- |
| B1 | 2 |
| B2 | 2 |

Target: the molecule itself
Test: mass spectrometry; molecular weights of the purified peptides compared with theoretical MWs calculated in Expasy; Liquid Chromatography and Mass Spectrometry Laboratory

| Protein | stoichiometry N |
| --- | --- |
| B3 | 2 |
| B4 | 2 |
| B5 | 2 |
| B6 | 2 |
